Experimental data taken from patent US20110039770A1 (PHARMAGAP, published 2011).

What was measured:
PKC-ε, purified isoform [1] = target: T1, PKC-ε, purified isoform (UniProt Q02156 1-737); test: competition ELISA on coated purified PKC-ε vs anti-PKC ε antibody; PRE 50 µM
T1 construct: also called PKC-epsilon; epsilon
T1 sequence (looked up): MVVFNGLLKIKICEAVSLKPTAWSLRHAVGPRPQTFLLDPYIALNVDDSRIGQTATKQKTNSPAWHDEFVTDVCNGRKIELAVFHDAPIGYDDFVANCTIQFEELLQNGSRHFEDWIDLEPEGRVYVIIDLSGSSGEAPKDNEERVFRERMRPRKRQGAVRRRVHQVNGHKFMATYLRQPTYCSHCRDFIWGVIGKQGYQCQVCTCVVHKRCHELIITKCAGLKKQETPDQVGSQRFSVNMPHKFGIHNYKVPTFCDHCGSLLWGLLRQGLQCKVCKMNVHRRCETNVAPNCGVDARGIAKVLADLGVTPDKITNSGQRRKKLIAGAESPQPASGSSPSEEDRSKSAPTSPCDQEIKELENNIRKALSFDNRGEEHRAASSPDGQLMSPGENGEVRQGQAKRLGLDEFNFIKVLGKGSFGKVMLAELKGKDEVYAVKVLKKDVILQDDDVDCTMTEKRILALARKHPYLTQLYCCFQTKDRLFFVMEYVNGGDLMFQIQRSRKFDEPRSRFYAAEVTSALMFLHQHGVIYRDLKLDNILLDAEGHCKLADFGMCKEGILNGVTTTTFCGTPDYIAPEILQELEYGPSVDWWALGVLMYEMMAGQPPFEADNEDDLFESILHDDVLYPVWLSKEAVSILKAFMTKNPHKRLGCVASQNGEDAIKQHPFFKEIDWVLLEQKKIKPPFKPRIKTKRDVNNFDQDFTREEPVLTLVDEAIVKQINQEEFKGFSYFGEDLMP

PKC-ε, purified isoform [2] = target: T1, PKC-ε, purified isoform; test: competition ELISA on coated purified PKC-ε vs anti-PKC ε antibody; PRE 200 µM
[3] = target: T2, PKC-ε in extracts of human cell lines (human, UniProt Q02156 1-737); test: Western-blot competition, cell extracts: PRE at 10X/20X the anti-PKC epsilon primary antibody concentration competes with that antibody; band densitometry (lower band = PRE bound)
T2 construct: Denatured on the Western blot membrane; also called PKC-epsilon (cell extract)
T2 sequence (looked up): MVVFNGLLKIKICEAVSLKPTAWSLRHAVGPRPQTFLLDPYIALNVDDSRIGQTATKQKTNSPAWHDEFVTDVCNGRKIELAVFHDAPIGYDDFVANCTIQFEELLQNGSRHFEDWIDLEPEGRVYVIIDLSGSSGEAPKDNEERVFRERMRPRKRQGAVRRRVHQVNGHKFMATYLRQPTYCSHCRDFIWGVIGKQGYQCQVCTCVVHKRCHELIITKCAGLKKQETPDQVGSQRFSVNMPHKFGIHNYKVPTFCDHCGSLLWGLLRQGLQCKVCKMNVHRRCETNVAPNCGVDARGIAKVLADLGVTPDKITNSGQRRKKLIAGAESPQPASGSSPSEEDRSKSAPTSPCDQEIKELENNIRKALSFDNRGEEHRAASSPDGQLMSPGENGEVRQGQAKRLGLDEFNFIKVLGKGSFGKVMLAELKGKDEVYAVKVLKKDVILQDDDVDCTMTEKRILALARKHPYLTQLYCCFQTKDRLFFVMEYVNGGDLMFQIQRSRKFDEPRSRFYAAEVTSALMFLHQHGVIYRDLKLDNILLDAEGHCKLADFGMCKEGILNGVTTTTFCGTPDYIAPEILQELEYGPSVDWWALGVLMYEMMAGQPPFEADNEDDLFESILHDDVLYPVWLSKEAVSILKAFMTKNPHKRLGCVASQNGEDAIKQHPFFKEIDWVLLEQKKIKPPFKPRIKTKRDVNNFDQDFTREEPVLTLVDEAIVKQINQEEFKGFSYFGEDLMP

[4] = target: T3, PKC-ι in extracts of human cell lines (human, UniProt P41743 2-596); test: Western-blot competition, cell extracts: PRE at 10X/20X the anti-PKC iota primary antibody concentration competes with that antibody; band densitometry (lower band = PRE bound)
T3 construct: Denatured on the Western blot membrane; also called PKC-iota (cell extract)
T3 sequence (looked up): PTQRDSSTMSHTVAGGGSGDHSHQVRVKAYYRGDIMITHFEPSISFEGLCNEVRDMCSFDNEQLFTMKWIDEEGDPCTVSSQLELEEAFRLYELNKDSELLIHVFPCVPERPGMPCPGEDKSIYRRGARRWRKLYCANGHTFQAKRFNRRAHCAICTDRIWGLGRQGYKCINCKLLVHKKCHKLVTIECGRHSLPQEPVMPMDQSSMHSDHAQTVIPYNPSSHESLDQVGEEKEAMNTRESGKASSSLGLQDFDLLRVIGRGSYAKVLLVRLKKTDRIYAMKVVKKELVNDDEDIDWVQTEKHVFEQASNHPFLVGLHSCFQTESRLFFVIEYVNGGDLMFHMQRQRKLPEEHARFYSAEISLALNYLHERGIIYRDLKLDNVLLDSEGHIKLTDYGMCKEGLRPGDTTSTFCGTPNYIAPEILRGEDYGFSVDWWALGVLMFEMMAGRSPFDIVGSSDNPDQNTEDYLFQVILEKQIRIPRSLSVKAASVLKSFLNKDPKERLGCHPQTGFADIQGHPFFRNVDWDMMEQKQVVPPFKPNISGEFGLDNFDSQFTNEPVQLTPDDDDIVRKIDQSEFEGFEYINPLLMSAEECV

PKC-βI, purified isoform = target: T4, PKC-βI, purified isoform (UniProt P05771-1 1-671); test: purified isoform competition ELISA, summary grade
T4 construct: also called PKC-beta I; beta 1
T4 sequence (P05771 whole entry, canonical isoform): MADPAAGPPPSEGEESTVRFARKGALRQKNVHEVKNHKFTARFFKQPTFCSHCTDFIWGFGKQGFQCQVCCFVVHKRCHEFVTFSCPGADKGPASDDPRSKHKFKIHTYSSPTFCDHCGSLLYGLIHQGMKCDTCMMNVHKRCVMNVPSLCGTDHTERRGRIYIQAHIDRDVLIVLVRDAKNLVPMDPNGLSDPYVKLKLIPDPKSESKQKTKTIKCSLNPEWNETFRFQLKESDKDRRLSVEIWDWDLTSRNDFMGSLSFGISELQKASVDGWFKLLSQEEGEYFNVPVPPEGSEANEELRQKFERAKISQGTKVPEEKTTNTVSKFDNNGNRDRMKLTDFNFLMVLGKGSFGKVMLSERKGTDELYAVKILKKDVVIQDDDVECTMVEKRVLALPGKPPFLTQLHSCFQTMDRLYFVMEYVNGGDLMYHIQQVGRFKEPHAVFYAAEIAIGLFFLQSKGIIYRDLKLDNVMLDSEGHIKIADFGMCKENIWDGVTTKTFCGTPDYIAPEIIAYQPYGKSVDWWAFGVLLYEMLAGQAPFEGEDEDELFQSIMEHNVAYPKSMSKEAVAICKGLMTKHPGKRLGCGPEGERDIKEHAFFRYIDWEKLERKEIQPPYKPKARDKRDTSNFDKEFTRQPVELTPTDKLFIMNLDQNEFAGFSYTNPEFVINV

PKC-α, purified isoform = target: T5, PKC-α, purified isoform (UniProt P17252 1-672); test: purified isoform competition ELISA, summary grade
T5 construct: also called PKC-alpha; protein kinase C alpha

PKC-ε, purified isoform [5] = target: T1, PKC-ε, purified isoform; test: purified isoform competition ELISA, summary grade
[6] = target: T6, PKC-βI in extracts of human cell lines (human, UniProt P05771-1 2-671); test: Western-blot competition, cell extracts: PRE at 10X/20X the anti-PKC beta I primary antibody concentration competes with that antibody; band densitometry (lower band = PRE bound)
T6 construct: Denatured on the Western blot membrane; beta I splice form; also called PKC-beta I (cell extract)
T6 sequence (P05771 2-671 limits assumed): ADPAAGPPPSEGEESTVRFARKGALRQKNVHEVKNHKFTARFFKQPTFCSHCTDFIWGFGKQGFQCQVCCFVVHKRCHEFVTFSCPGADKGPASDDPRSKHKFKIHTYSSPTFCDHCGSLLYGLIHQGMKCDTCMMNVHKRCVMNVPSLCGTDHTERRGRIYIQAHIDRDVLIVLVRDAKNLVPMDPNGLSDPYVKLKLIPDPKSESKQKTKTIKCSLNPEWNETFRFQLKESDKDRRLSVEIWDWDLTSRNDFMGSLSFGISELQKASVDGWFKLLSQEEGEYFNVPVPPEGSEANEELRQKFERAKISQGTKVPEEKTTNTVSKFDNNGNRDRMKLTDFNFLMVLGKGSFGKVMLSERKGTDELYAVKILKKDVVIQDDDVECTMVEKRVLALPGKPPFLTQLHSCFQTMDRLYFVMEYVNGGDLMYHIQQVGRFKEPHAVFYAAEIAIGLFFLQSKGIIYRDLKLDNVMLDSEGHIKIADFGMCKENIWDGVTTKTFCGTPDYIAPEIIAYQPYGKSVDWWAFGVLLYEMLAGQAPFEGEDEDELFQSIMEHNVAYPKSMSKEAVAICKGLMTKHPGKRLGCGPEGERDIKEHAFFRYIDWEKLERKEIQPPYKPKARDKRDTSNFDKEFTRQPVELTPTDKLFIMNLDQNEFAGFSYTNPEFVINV

PKC-ε, purified isoform [7] = target: T1, PKC-ε, purified isoform; test: competition ELISA on coated purified PKC-ε vs anti-PKC ε antibody; PRE 100 µM
[8] = target: T7, PKC-ζ in extracts of human cell lines (human, UniProt Q05513 1-592); test: Western-blot competition, cell extracts: PRE at 10X/20X the anti-PKC zeta primary antibody concentration competes with that antibody; band densitometry (lower band = PRE bound)
T7 construct: Denatured on the Western blot membrane; also called PKC-zeta (cell extract)
T7 sequence (looked up): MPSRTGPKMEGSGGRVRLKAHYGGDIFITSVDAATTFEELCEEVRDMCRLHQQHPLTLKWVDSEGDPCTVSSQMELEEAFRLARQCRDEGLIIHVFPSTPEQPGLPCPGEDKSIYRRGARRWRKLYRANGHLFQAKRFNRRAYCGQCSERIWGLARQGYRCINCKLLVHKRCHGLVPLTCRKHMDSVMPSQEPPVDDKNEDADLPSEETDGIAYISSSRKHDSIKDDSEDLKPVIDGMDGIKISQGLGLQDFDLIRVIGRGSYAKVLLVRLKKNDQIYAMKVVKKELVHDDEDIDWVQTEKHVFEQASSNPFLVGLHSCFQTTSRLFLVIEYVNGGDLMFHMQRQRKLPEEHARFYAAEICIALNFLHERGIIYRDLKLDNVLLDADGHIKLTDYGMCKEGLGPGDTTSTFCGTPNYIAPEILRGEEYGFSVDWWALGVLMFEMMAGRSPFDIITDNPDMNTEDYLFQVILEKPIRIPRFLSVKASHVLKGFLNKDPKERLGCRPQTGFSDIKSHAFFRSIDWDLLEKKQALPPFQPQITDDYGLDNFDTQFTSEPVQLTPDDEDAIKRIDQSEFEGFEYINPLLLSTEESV

B1: PRE 12 (peptide)
peptide: Ac-KDAQNLI-NH2
notes: Ac-KDAQNLI-NH2; also called peptide recognition element 12
relative binding capacity (PKC-ε, purified isoform [1]): 10.4%
relative binding capacity (PKC-ε, purified isoform [2]): 0%
binding result [3]: no binding (tested: 20X the primary antibody concentration)
binding result [4]: no binding (tested: 20X the primary antibody concentration)
binding result (PKC-βI, purified isoform): no binding
binding result (PKC-α, purified isoform): no binding
binding result (PKC-ε, purified isoform [5]): no binding
binding result [6]: no binding (tested: 20X the primary antibody concentration)
relative binding capacity (PKC-ε, purified isoform [7]): 0.28%
binding result [8]: binds
